Values of other authors, collected in PMC6021539.

Target: Adrenomedullin (Homo sapiens) (UniProt P35318)

Kd: 0.19 µM
Substance: CXCR7 (from UniProt P25106)
